Data from patent publication US20240043551A1 (ADLAI NORTYE BIOPHARMA, published 2024).
Positions count from the first letter of the chain named.

T1: Human TNFR1 (Acro Biosystem, TN1-H5222) (human, UniProt P19438 30-211)
T1 construct: Bought protein; also called TNF receptor type 1; CD120a
T1 sequence (looked up): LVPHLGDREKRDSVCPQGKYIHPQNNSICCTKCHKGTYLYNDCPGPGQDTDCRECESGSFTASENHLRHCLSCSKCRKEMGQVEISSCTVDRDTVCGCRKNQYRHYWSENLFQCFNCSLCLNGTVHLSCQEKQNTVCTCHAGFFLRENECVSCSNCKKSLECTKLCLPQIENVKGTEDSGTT

T2: mouse TNFR2 (R&D systems, 426-R2-050/CF) (mouse, UniProt P25119 23-258)
T2 construct: Bought protein
T2 sequence (looked up): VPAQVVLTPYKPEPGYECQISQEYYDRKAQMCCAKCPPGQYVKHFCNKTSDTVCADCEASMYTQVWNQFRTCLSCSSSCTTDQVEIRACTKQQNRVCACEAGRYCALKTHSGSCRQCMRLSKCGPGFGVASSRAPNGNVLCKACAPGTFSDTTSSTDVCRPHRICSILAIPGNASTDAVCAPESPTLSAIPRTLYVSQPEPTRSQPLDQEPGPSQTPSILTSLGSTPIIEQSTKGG

T3: rat TNFR2 (R&D systems, 8348-R2-050) (rat, UniProt Q80WY6 23-258)
T3 construct: Bought protein
T3 sequence (looked up): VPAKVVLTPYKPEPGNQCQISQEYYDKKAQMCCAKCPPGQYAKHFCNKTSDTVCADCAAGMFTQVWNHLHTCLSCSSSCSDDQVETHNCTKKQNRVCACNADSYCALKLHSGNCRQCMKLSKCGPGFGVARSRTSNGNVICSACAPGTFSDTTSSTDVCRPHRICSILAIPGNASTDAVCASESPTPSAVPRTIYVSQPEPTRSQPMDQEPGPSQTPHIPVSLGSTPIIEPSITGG

B1: TN36-10 (antibody, V domains shown)
VH: EVQLVESGGGLIQPGGSLRLSCAASGFSLSSSAVSWVRQAPGKGLEWIGAIGSGGTSYYSNWAKSRFTISRDTSKNTVYLQMNSLRAEDTAVYFCARDPNSSDYPYGAYGMGLWGPGTLVTVSS
VL: DIQMTQSPSSLSASVGDRVTITCQVSQSISSYLSWYQQKPGKAPKLLIYYASTLASGVPSRFSGSGSGTDFTLTISSLQPEDFATYYCQQGYITSNVGNAFGGGTKVEIK
notes: Humanized; also called AL4/AL8
B2: TN36-15 (antibody, human IgG1, V domains shown)
VH: B1 VH with I12V, T73N, V78L, F94Y, P116Q
VL: B1 VL with A43P
notes: Humanized; also called AL5/AL9
B3: TN36-16 (antibody, human IgG1, V domains shown)
VH: B1 VH with I12V, T73N, V78L, F94Y, P116Q
VL: B1 VL with S10F
notes: Humanized; also called AL5/AL10
B4: TN36-11 (antibody, human IgG1, V domains shown)
VH: B1 VH
VL: B1 VL with A43P
notes: Humanized; also called AL4/AL9
B5: TN36-13 (antibody, human IgG1, V domains shown)
VH: B1 VH
VL: B1 VL with M4L, S10F, D70E
notes: Humanized; also called AL4/AL11
B6: TN36-21 (antibody, human IgG1, V domains shown)
VH: B1 VH with I12V, T73N, V78L, F94Y
VL: B1 VL with M4L, S10F, D70E
notes: Humanized; also called AL6/AL11
B7: TN36-19 (antibody, human IgG1, V domains shown)
VH: B1 VH with I12V, T73N, V78L, F94Y
VL: B1 VL with A43P
notes: Humanized; also called AL6/AL9
B8: TN36-20 (antibody, human IgG1, V domains shown)
VH: B1 VH with I12V, T73N, V78L, F94Y
VL: B1 VL with S10F
notes: Humanized; also called AL6/AL10
B9: TN36-14 (antibody, human IgG1, V domains shown)
VH: B1 VH with I12V, T73N, V78L, F94Y, P116Q
VL: B1 VL
notes: Humanized; also called AL5/AL8
B10: TN36-12 (antibody, human IgG1, V domains shown)
VH: B1 VH
VL: B1 VL with S10F
notes: Humanized; also called AL4/AL10
B11: TN36-17 (antibody, human IgG1, V domains shown)
VH: B1 VH with I12V, T73N, V78L, F94Y, P116Q
VL: B1 VL with M4L, S10F, D70E
notes: Humanized; also called AL5/AL11
B12: TN36-18 (antibody, human IgG1, V domains shown)
VH: B1 VH with I12V, T73N, V78L, F94Y
VL: B1 VL
notes: Humanized; also called AL6/AL8

Molecular target: T1, Human TNFR1 (Acro Biosystem, TN1-H5222)
Assay: ELISA, receptor coated at 1 µg/mL
Description: (§1) Human TNFR2 (Acro Biosystem, TN2-H5227), Human TNFR1 (Acro Biosystem, TN1-H5222), Cynomolgus TNFR2 (Sino Biological, 90102-CO8H) or mouse TNFR2 (R&D systems, 426-R2-050/CF) was coated on high binding polystyrene flat bottom micro-titer plates (Thermo Scientific, 3455) in PBS (PH=7.4, Gibco,10010-031) at 1 μg/mL and 100 μL per well. Plates were incubated at 4° C. overnight.
(§2) Plates were warmed up to room temperature the next day and washed with 200 μL PBS containing 0.1% Tween 20 (Life technologies, 003005) per well for 3 times. Plates were blocked with 200 μL PBS buffer containing 1% BSA (Fisher Scientific, BP1600-100) per well for 1 hour at 37° C. Antibodies was titrated from 5 μg/mL in a 5-fold dilution series, distributed 100 μL per well and incubated at 37° C. for 1 hour. Human IgG1 isotype control (BioxCell, BE0297) was used as negative control. Plates were washed with 200 μL PBS containing 0.1% Tween 20 (Life technologies, 003005) per well for 3 times. Goat anti-Human IgG Fc Secondary Antibody-HRP conjugate (Invitrogen, A18817) were distributed at 0.5μg/mL and 100 μL per well to detect bound antibodies. After 1-hour incubation of secondary antibody at 37° C., plates were washed with 200 μL PBS containing 0.1% Tween 20 (Life technologies, 003005) per well for 3 times. Plates were developed using TMB Substrate Solution (eBioscience, 00-4201-56) and stopped with ELISA stop solution (Invitrogen, SSO4). The level of bound antibodies was determined by reading absorbance at 450 nm. Mouse anti-human TNFR1 antibody (ThermoFisher Scientific, MA1-81005) and goat anti mouse IgG secondary antibody-HRP conjugate (Invitrogen, 62-5520) were used as positive control for human TNFR1 detection. Armenian Hamster anti-mouse TNFR2 antibody (InVivoMab, BE0247) and HRP-Goat anti-Armenian Hamster IgG (H+L) Secondary Antibody (Invitrogen, PA1-32045) were used as positive control for mouse TNFR2 detection.

Does B1 bind?
Result: no binding (tested: titrated from 5 µg/mL)

Does B2 bind?
Result: no binding (tested: titrated from 5 µg/mL)

Does B3 bind?
Result: no binding (tested: titrated from 5 µg/mL)

Does B4 bind?
Result: no binding (tested: titrated from 5 µg/mL)

Does B5 bind?
Result: no binding (tested: titrated from 5 µg/mL)

Does B6 bind?
Result: no binding (tested: titrated from 5 µg/mL)

Does B7 bind?
Result: no binding (tested: titrated from 5 µg/mL)

Does B8 bind?
Result: no binding (tested: titrated from 5 µg/mL)

Does B9 bind?
Result: no binding (tested: titrated from 5 µg/mL)

Does B10 bind?
Result: no binding (tested: titrated from 5 µg/mL)

Does B11 bind?
Result: no binding (tested: titrated from 5 µg/mL)

Does B12 bind?
Result: no binding (tested: titrated from 5 µg/mL)

Molecular target: T2, mouse TNFR2 (R&D systems, 426-R2-050/CF)
Assay: ELISA, receptor coated at 1 µg/mL
Description: as §1, §2

Does B1 bind?
Result: no binding (tested: titrated from 5 µg/mL)

Does B2 bind?
Result: no binding (tested: titrated from 5 µg/mL)

Does B3 bind?
Result: no binding (tested: titrated from 5 µg/mL)

Does B4 bind?
Result: no binding (tested: titrated from 5 µg/mL)

Does B5 bind?
Result: no binding (tested: titrated from 5 µg/mL)

Does B6 bind?
Result: no binding (tested: titrated from 5 µg/mL)

Does B7 bind?
Result: no binding (tested: titrated from 5 µg/mL)

Does B8 bind?
Result: no binding (tested: titrated from 5 µg/mL)

Does B9 bind?
Result: no binding (tested: titrated from 5 µg/mL)

Does B10 bind?
Result: no binding (tested: titrated from 5 µg/mL)

Does B11 bind?
Result: no binding (tested: titrated from 5 µg/mL)

Does B12 bind?
Result: no binding (tested: titrated from 5 µg/mL)

Molecular target: T3, rat TNFR2 (R&D systems, 8348-R2-050)
Assay: ELISA, receptor coated at 1 µg/ml
Description: Plates were incubated at 4° C. overnight. Antibodies was titrated from 100 μg/ml in a 5-fold dilution series, and distributed 100 μL, per well and incubated at 37° C. for 1 hour. Human IgG1 isotype control (BioxCell, BE0297) was used as negative control. TNFR2 Polyclonal Antibody (Invitrogen, PAS-80159) and HRP conjugated Goat anti-Rabbit IgG Fc Secondary Antibody (Invitrogen, A16116) were used as positive control for rat TNFR2 detection.

Does B1 bind?
Result: no binding (tested: titrated from 100 µg/ml)

Does B2 bind?
Result: no binding (tested: titrated from 100 µg/ml)

Does B3 bind?
Result: no binding (tested: titrated from 100 µg/ml)

Does B4 bind?
Result: no binding (tested: titrated from 100 µg/ml)

Does B5 bind?
Result: no binding (tested: titrated from 100 µg/ml)

Does B6 bind?
Result: no binding (tested: titrated from 100 µg/ml)

Does B7 bind?
Result: no binding (tested: titrated from 100 µg/ml)

Does B8 bind?
Result: no binding (tested: titrated from 100 µg/ml)

Does B9 bind?
Result: no binding (tested: titrated from 100 µg/ml)

Does B10 bind?
Result: no binding (tested: titrated from 100 µg/ml)

Does B11 bind?
Result: no binding (tested: titrated from 100 µg/ml)

Does B12 bind?
Result: no binding (tested: titrated from 100 µg/ml)
